Reference: patent US20240084027A1 (BEIJING MABWORKS, published 2024)
Read-outs that look alike come from different tables or passages of the source.

How the values were obtained:
[1] = target: T1, human CD40-his protein (human, UniProt P25942 21-193); assay: SPR (BIAcore 8K), human CD40-his coupled to CM5 chip, antibody injected
T1 construct: Bought protein; also called human CD40 protein; CD40 molecules; not shown: his tag
From the text: (§1) Using BIAcore™ 8K instrument (GE Life Sciences, US), the binding affinity of the bi- or multi-specific antibodies to human CD40 and PD-L1 was quantitatively measured. Briefly, 100-200 response units (RU) of human CD40-his protein (Cat #:10774-1108H, Sino Biological, CN) or human PD-L1-his protein (Cat #:10084-H08H, Sino Biological, CN) were coupled to CM5 biosensor chips (Cat #:BR-1005-30, GE Life Sciences. USA). The un-reacted groups were then blocked with 1 M ethanolamine. Serially diluted antibodies at concentrations ranging from 0.3 μM to 10 μM were injected into the SPR running buffer (HBS-EP buffer, pH7.4, Cat #:BR-1006-69, GE Life Sciences, USA) at 30 μL/min. The binding affinity was calculated with the RUs of blank controls subtracted, and the association rate (kₐ) and dissociation rate (kd) were determined using the one-to-one Langmuir binding model (BIA Evaluation Software, GE Life Sciences, USA). The equilibrium dissociation constant KD was calculated as the kd/kₐ ratio.

[2] = target: T2, human PD-L1-his protein (human, UniProt Q9NZQ7 19-238); assay: SPR (BIAcore 8K), human PD-L1-his coupled to CM5 chip, antibody injected
T2 construct: extracellular domain; also called human PD-L1 (ECD)-his; human PD-L1 protein; not shown: his tag
T2 sequence (Q9NZQ7 19-238): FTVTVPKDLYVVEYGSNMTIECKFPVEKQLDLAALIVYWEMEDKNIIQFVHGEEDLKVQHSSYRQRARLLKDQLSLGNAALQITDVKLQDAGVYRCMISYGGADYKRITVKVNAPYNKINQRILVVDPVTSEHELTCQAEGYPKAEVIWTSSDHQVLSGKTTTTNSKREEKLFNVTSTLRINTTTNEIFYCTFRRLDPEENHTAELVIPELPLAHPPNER
From the text: as §1

[3] = target: T3, human CD40 on HEK293A/human CD40 cells (human, UniProt P25942 21-277); assay: FACS on HEK293A/human CD40 cells
T3 construct: also called HEK-Blue/CD40 cells
Experimental: (§2) The bispecific antibodies as prepared above were tested for their binding capability to cell surface human, monkey and mouse CD40 proteins by FACS, using the HEK293A cells prepared in Example 1 that stably expressed human, monkey or mouse CD40. Briefly, a 96-well plate was seeded with 10⁵ HEK293A cells in 50 μl PBS, and then added with 100 μl serially diluted anti-CD40 antibody 714VH2VL2 and the bispecific antibodies of the disclosure (starting concentration at 40 μg/ml). After incubation at 4° C. for 1 h, the plate was washed by PBST for 3 times. The plate was added with 1:500 diluted APC-goat anti-mouse IgG (Cat #:405308, BioLegen, USA), incubated at 4° for 1 h, washed with PBS for 3 times, and subjected to fluorescence measurement in a FACS machine (BD).
(§3) Following the protocols in Example 4 and Example 5, the bi- or multi-specific antibodies of the disclosure were tested for their binding capability to human PD-L1 and human CD40 proteins by FACS using the HEK293A cells prepared in Example 1 that stably expressed human PD-L1 or human CD40.

[4] = target: T3, human CD40 on HEK293A/human CD40 cells; assay: FACS on HEK293A/human CD40 cells; remark: listed apart in the source
Experimental: as §2, §3

[5] = target: T3, human CD40 on HEK293A/human CD40 cells; assay: FACS on HEK293A/human CD40 cells; remark: listed apart in the source
Experimental: as §2, §3

[6] = target: T3, human CD40 on HEK293A/human CD40 cells; assay: cell-based or functional assay
[7] = target: T3, human CD40 on HEK293A/human CD40 cells; assay: cell-based or functional assay; remark: listed apart in the source
[8] = target: T4, human PD-L1 on HEK293A/human PD-L1 cells (human, UniProt Q9NZQ7 19-290); assay: FACS on HEK293A/human PD-L1 cells
T4 sequence (Q9NZQ7 19-290 limits assumed): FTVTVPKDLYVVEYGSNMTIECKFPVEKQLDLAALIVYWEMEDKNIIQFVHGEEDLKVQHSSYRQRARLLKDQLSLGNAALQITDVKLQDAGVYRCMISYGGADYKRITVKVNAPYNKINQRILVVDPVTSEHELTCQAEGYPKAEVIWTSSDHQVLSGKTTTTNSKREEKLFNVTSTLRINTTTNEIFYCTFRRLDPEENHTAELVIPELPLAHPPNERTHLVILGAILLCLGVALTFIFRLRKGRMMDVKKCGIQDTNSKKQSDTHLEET
Experimental: as §2, §3

[9] = target: T4, human PD-L1 on HEK293A/human PD-L1 cells; assay: FACS on HEK293A/human PD-L1 cells; remark: listed apart in the source
Experimental: as §2, §3

[10] = target: T4, human PD-L1 on HEK293A/human PD-L1 cells; assay: FACS blocking assay on HEK293A/human PD-L1 cells; blocked ligand PD-1-Fc
Experimental: The bispecific antibodies were tested for their blocking activity on PD-1-PD-L1 binding by FACS using the HEK293A cells stably expressing human PD-L1 molecules as prepared in Example 1. Briefly, a 96-well plate was seeded with 10⁵ HEK293A/human PD-L1 cells in 100 μl cell culture medium, and then added with 50 μl serially diluted anti-PD-L1 antibody 56E5VH5VL4 or MBS307-3 molecules. After incubation at 4° C. for 1 h. the plate was washed with PBST for 3 times, added with 100 μl 200 μg/ml PD-1-Fc fusion proteins (Cat #:10377-10211, Sino Biological, CN), incubated at 4° C. for 1 h, washed with PBST for 3 times, and added with 1:500 diluted PE-goat anti-human IgG (Cat #:PAI-86078, Thermofisher, USA). After incubation at 4° C. for 1 h, the plate was washed with PBST for 3 times and measured for fluorescence using a FACS machine (BD).
Following the protocol of Example 7, the bi- or multi-specific antibodies were tested for their capability to block PD-1-PD-L1 binding by FACS, using the HEK293A cells prepared in Example 1 that stably expressed human PD-L1 molecules.

[11] = target: T4, human PD-L1 on HEK293A/human PD-L1 cells; assay: FACS on HEK293A/human PD-L1 cells; remark: listed apart in the source
Experimental: as §2, §3

Binder	Kd [1] [nM]	Kd [2] [nM]	EC50 (read off the curve) [3] [ng/mL]	EC50 (read off the curve) [4] [ng/mL]	EC50 (read off the curve) [5] [ng/mL]	EC50 (read off the curve); HEK-Blue/CD40 reporter, OD630, plate coated with human PD-L1-his [6] [ng/mL]	EC50 (read off the curve); HEK-Blue/CD40 reporter, OD630, plate coated with human PD-L1-his [7] [ng/mL]	EC50 (read off the curve) [8] [ng/mL]	EC50 (read off the curve) [9] [ng/mL]	IC50 (read off the curve) [10] [ng/mL]	EC50 (read off the curve) [11] [ng/mL]
MBS307-10 (bispecific antibody, human IgG1, kappa, L234A L235A, Asymmetric: knob chain without scFv, hole chain with the 3C2VH6VL5 scFv; also called MBS307-10-1 + MBS307-10-2) heavy 1: QVQLQESGPGLVKPSDTLSLTCAVSGYSITTNYYWNWIRQPPGKGLEWMGYIKYDGSNNYNPSLKNRITISVDTSKNQFSLKLSSVTAVDTAVYYCARLDYWGQGTLVTVSSASTKGPSVFPLAPSSKSTSGGTAALGCLVKDYFPEPVTVSWNSGALTSGVHTFPAVLQSSGLYSLSSVVTVPSSSLGTQTYICNVNHKPSNTKVDKKVEPKSCDKTHTCPPCPAPEAAGGPSVFLFPPKPKDTLMISRTPEVTCVVVDVSHEDPEVKFNWYVDGVEVHNAKTKPREEQYNSTYRVVSVLTVLHQDWLNGKEYKCKVSNKALPAPIEKTISKAKGQPREPQVYTLPPSREEMTKNQVSLWCLVKGFYPSDIAVEWESNGQPENNYKTTPPVLDSDGSFFLYSKLTVDKSRWQQGNVFSCSVMHEALHNHYTQKSLSLSPGK heavy 2: QVQLQESGPGLVKPSDTLSLTCAVSGYSITTNYYWNWIRQPPGKGLEWMGYIKYDGSNNYNPSLKNRITISVDTSKNQFSLKLSSVTAVDTAVYYCARLDYWGQGTLVTVSSASTKGPSVFPLAPSSKSTSGGTAALGCLVKDYFPEPVTVSWNSGALTSGVHTFPAVLQSSGLYSLSSVVTVPSSSLGTQTYICNVNHKPSNTKVDKKVEPKSCDKTHTCPPCPAPEAAGGPSVFLFPPKPKDTLMISRTPEVTCVVVDVSHEDPEVKFNWYVDGVEVHNAKTKPREEQYNSTYRVVSVLTVLHQDWLNGKEYKCKVSNKALPAPIEKTISKAKGQPREPQVYTLPPSREEMTKNQVSLSCAVKGFYPSDIAVEWESNGQPENNYKTTPPVLDSDGSFFLVSKLTVDKSRWQQGNVFSCSVMHEALHNHYTQKSLSLSPGGGGGQVQLVQSGAEVKKPGASVKVSCKASGYTFTDYHVNWVRQAPGQGLEWIGWIFPGSGRTFYTDKFKGRVTMTVDTSTSTVYMELSSLRSEDTAVYYCATDYGTSGYGLVYWGQGTTVTVSSGGGGSGGGGSGGGGSGGGGSDIQMTQSPSSLSASVGDRVTITCKASDRINNWLAWYQQKPGKAPKLLISGATSLETGVPSRFSGSGSGTDFTLTISSLQPEDEATYYCQQYWNIPFTFGQGTKLTAK light: DVVLTQSPLSLPVTLGQPASISCRSSQSLENSNGNTFLNWFQQRPGQSPRLLIYKVSNRFSGVPDRFSGSGSGTDFTLKISRVEAEDVGVYYCLQVTHVPFTFGQGTKLEIKRTVAAPSVFIFPPSDEQLKSGTASVVCLLNNFYPREAKVQWKVDNALQSGNSQESVTEQDSKDSTYSLSSTLTLSKADYEKHKVYACEVTHQGLSSPVTKSFNRGEC	2.72	17.7	~20	~70	~40	~30	~50	–	–	–	–
MBS307-8 (bispecific antibody, human IgG1, kappa, L234A L235A, Asymmetric: knob chain with the 3C2VH6VL5 scFv, hole chain with the 56E5VH5VL4 scFv, linker 3 (long linker); also called MBS307-8-1 + MBS307-8-2) heavy 1: QVQLQESGPGLVKPSDTLSLTCAVSGYSITTNYYWNWIRQPPGKGLEWMGYIKYDGSNNYNPSLKNRITISVDTSKNQFSLKLSSVTAVDTAVYYCARLDYWGQGTLVTVSSASTKGPSVFPLAPSSKSTSGGTAALGCLVKDYFPEPVTVSWNSGALTSGVHTFPAVLQSSGLYSLSSVVTVPSSSLGTQTYICNVNHKPSNTKVDKKVEPKSCDKTHTCPPCPAPEAAGGPSVFLFPPKPKDTLMISRTPEVTCVVVDVSHEDPEVKFNWYVDGVEVHNAKTKPREEQYNSTYRVVSVLTVLHQDWLNGKEYKCKVSNKALPAPIEKTISKAKGQPREPQVYTLPPSREEMTKNQVSLWCLVKGFYPSDIAVEWESNGQPENNYKTTPPVLDSDGSFFLYSKLTVDKSRWQQGNVFSCSVMHEALHNHYTQKSLSLSPGSGGGGSGGGGSQVQLVQSGAEVKKPGASVKVSCKASGYTFTDYHVNWVRQAPGQGLEWIGWIFPGSGRTFYTDKFKGRVTMTVDTSTSTVYMELSSLRSEDTAVYYCATDYGTSGYGLVYWGQGTTVTVSSGGGGSGGGGSGGGGSGGGGSDIQMTQSPSSLSASVGDRVTITCKASDRINNWLAWYQQKPGKAPKLLISGATSLETGVPSRFSGSGSGTDFTLTISSLQPEDEATYYCQQYWNIPFTFGQGTKLTAK heavy 2: QVQLQESGPGLVKPSDTLSLTCAVSGYSITTNYYWNWIRQPPGKGLEWMGYIKYDGSNNYNPSLKNRITISVDTSKNQFSLKLSSVTAVDTAVYYCARLDYWGQGTLVTVSSASTKGPSVFPLAPSSKSTSGGTAALGCLVKDYFPEPVTVSWNSGALTSGVHTFPAVLQSSGLYSLSSVVTVPSSSLGTQTYICNVNHKPSNTKVDKKVEPKSCDKTHTCPPCPAPEAAGGPSVFLFPPKPKDTLMISRTPEVTCVVVDVSHEDPEVKFNWYVDGVEVHNAKTKPREEQYNSTYRVVSVLTVLHQDWLNGKEYKCKVSNKALPAPIEKTISKAKGQPREPQVYTLPPSREEMTKNQVSLSCAVKGFYPSDIAVEWESNGQPENNYKTTPPVLDSDGSFFLVSKLTVDKSRWQQGNVFSCSVMHEALHNHYTQKSLSLSPGSGGGGSGGGGSQVQLQESGPGLVKPSQTLSLTCTVSGGSITSDYWNWIRQHPGNKLEYMGYISYTGSTYYNPSLKSRISITRDTSKNQFSLKLSSVTTADTAVYYCARYRDWDVRAMDYWGQGTTVTVSSGGGGSGGGGSGGGGSGGGGSDIVMTQSPDSLAVSLGEKVTMNCKSSQSLLISGNQKNFLTWYQQKPGQPPKLLIYWASTRESGVPDRFSGSGSGTDFTLTISSLQAEDEAVYYCQNDFGFPFTFGQGTKLTAK light: DVVLTQSPLSLPVTLGQPASISCRSSQSLENSNGNTFLNWFQQRPGQSPRLLIYKVSNRFSGVPDRFSGSGSGTDFTLKISRVEAEDVGVYYCLQVTHVPFTFGQGTKLEIKRTVAAPSVFIFPPSDEQLKSGTASVVCLLNNFYPREAKVQWKVDNALQSGNSQESVTEQDSKDSTYSLSSTLTLSKADYEKHKVYACEVTHQGLSSPVTKSFNRGEC	–	–	~40	–	–	–	–	~500	–	–	–
anti-PD-L1 antibody 3C2VH6VL5 (antibody, V domains shown, also called 3C2VH46VL5 [sic]) VH: QVQLVQSGAEVKKPGASVKVSCKASGYTFTDYHVNWVRQAPGQGLEWIGWIFPGSGRTFYTDKFKGRVTMTVDTSTSTVYMELSSLRSEDTAVYYCATDYGTSGYGLVYWGQGTTVTVSS VL: DIQMTQSPSSLSASVGDRVTITCKASDRINNWLAWYQQKPGKAPKLLISGATSLETGVPSRFSGSGSGTDFTLTISSLQPEDIATYYCQQYWNIPFTFGQGTKVEIK	–	–	–	–	–	–	–	–	~100	~500	~200
